Here are results for six molecules from publication PMC6239910 (Molecular cell, 2018).

Residue numbers refer to the chain shown, from its start. Names may count otherwise. Where two headings read alike, the source gives them in different places.

Experiment [1] deals with T1, Ube2D3(C85S) (human, UniProt P61077 1-147, C85S). Briefly: NMR titration.
Experiment [2] addresses T1, Ube2D3(C85S). Kind of experiment: NMR titration. This is another data set of the same source.
Another experiment has as its target Ube2D1 (human, UniProt P51668 1-147). Kind of experiment: ITC.

Chain of Ube2D1 (P51668 whole entry): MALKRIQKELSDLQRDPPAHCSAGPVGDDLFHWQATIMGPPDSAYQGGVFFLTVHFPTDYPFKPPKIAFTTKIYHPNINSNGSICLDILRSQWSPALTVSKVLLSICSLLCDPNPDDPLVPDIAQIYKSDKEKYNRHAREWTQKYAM
T1 sequence (P61077 whole entry C85S): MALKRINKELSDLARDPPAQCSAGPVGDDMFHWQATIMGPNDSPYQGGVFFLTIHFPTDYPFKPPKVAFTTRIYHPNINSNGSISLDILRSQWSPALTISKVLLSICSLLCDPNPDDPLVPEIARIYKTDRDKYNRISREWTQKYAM

B1: UHRF2-UBL (residues 1–81) (domain or fragment, UniProt Q96PU4 1-81, looked up)
chain: MWIQVRTIDGSKTCTIEDVSRKATIEELRERVWALFDVRPECQRLFYRGKQLENGYTLFDYDVGLNDIIQLLVRPDPDHLP
By Kd is commonly meant the free concentration of one partner at which half of the binding sites on the other are occupied at equilibrium, for simple one-to-one binding. Higher therefore signals a looser complex. In the experiment with Ube2D3(C85S) [1], B1 had a Kd of 215 µM.

B2: UHRF1-UBL (residues 1–76) (domain or fragment, human, UniProt Q96T88 1-76, looked up)
chain: MWIQVRTMDGRQTHTVDSLSRLTKVEELRRKIQELFHVEPGLQRLFYRGKQMEDGHTLFDYEVRLNDTIQLLVRQS
B2 registered a Kd with Ube2D3(C85S) [2] of 15 µM.

B3: UHRF1-UBL F59V (domain or fragment, human, UniProt Q96T88 1-76, looked up)
chain: B2 chain with F59V
For B3, the binding result with Ube2D1 is “binds”.

B4: UHRF1-UBL K50R (domain or fragment, human, UniProt Q96T88 1-76, looked up)
chain: B2 chain with K50R
In the case of B4, in the experiment with Ube2D1, the binding result is listed as “binds”.

B5: UHRF1-UBL W2V (domain or fragment, human, UniProt Q96T88 1-76, looked up)
chain: B2 chain with W2V
For the molecule B5, in the experiment with Ube2D1, the binding result is on record as “binds”.

B6: UHRF1-UBL L65A (domain or fragment, human, UniProt Q96T88 1-76, looked up)
chain: B2 chain with L65A
Turning to B6, in the experiment with Ube2D1, the binding result is “binds”.
